Laboratory results as given in patent publication US9187525B2, “Methods of treating ophthalmic diseases using NPR-B agonists” (Shire Orphan Therapies GmbH, dated 2015).
Numbered stars: 1 amine (or outer) side, 2 acyl side, 3 side chain; on linkers, the order of the positions; unused ones are H or OH. Square brackets hold non-standard residues; d marks the D form. Ends that are not written are not given here. * marks the point of attachment. Nbhp = rac-(2,3-dihydroxy-propylamino)-acetic acid, O=C(CN(CC(O)CO[*:3])[*:1])[*:2]; Nhpr = (3-hydroxy-propylamino)acetic acid, O=C(CN(CCCO[*:3])[*:1])[*:2]; Gluc‑Aoa = (2,3,4,5,6-pentahydroxyhexylidenaminooxy)-acetic acid; Paa = piperazin-1-yl-acetic acid, O=C(CN1CCN([*:1])CC1)[*:2]; Pro(trans-4-NH2) = O=C([C@@H]1C[C@@H](N[*:3])CN1[*:1])[*:2]; Sni = (S)-nipecotic acid, O=C([C@H]1CCCN([*:1])C1)[*:2]; Hyp = O=C(O)[C@@H]1C[C@@H](O)CN1; d(β3hL) = CC(C)C[C@@H](N)CC(=O)O; dAoc(2) = CCCCCC[C@@H](N)C(=O)O; 2Thi = N[C@@H](Cc1cccs1)C(=O)O; AR‑314‑102 = not defined here; Aoc(2) = CCCCCC[C@H](N)C(=O)O; NMeL = CN[C@@H](CC(C)C)C(=O)O; AR‑314‑87 = not defined here; Chg = N[C@H](C(=O)O)C1CCCCC1; d(hSer) = N[C@H](CCO)C(=O)O; lys(Me2) = not defined here; orn(Me2) = not defined here; dDab = NCC[C@@H](N)C(=O)O; Nle = CCCC[C@H](N)C(=O)O; Octanoyl = CCCCCCCC(=O)*; Che = not defined here; Hexanoyl = CCCCCC(=O)*; leu = not defined here; Occ = octanoic acid

T1: natriuretic peptide receptor-B (human)
T1 chain: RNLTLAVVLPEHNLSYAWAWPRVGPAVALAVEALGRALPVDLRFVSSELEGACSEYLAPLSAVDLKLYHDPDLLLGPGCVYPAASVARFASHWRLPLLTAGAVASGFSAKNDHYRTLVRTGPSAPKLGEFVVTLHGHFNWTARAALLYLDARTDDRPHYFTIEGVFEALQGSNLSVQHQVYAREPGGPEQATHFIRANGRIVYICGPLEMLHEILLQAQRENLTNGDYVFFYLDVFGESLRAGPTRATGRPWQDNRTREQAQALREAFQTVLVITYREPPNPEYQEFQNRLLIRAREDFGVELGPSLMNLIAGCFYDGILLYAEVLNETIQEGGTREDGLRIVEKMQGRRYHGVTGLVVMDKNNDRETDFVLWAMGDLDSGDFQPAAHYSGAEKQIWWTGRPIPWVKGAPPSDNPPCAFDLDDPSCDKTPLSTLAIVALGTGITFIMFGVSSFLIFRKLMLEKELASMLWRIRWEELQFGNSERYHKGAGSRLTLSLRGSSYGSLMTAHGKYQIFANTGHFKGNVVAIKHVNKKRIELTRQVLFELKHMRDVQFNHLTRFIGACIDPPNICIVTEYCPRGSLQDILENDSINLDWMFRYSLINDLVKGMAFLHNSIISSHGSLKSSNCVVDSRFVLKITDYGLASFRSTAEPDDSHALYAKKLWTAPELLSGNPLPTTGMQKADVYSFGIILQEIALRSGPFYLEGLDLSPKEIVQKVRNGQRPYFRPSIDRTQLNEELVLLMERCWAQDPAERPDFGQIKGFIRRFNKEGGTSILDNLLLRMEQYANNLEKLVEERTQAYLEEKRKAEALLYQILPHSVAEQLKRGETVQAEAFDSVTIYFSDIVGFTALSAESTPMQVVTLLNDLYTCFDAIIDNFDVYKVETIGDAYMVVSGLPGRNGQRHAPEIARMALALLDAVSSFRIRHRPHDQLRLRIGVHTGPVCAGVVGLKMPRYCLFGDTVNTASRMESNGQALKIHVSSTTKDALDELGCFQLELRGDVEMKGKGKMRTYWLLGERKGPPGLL

B1: JAL-1800 (peptide)
peptide: Octanoyl-SFLL[Hyp][NMeL]DRI-NH2
modifications: not fully specified (some residues); printed as Occ-ser-Phe-leu-Leu-Hyp-Nml-Asp-Arg-Ile-NH2
B2: JAL-1774 (peptide)
peptide: [AR‑314‑102][leu]L[Hyp][NMeL]DRI-NH2
modifications: reading uncertain; also: printed as (AR-314-102)-leu-Leu-Hyp-Nml-Asp-Arg-Ile-NH2
B3: JAL-0731 (peptide)
peptide: Hexanoyl-[dA][dA]F[Paa]KLDRI-NH2
B4: JAL-1756 (peptide)
peptide: [Occ][Sni]FLL[Hyp][NMeL][d(β3hL)]R[Che]
modifications: not fully specified (residue 4); printed as Occ-Sni-Phe-leu-Leu-Hyp-Nml-Ble-Arg-Che; reading uncertain
B5: JAL-1777 (peptide)
peptide: Octanoyl-[Sni]F[lys(Me2)]L[Hyp][NMeL]DR[Che]
modifications: reading uncertain; also: printed as Occ-Sni-Phe-lys(Me2)-Leu-Hyp-Nml-Asp-Arg-Che
B6: JAL-1751 (peptide)
peptide: [Occ][Sni]FLL[Hyp][NMeL]NR[Che]
modifications: not fully specified (residue 4); printed as Occ-Sni-Phe-leu-Leu-Hyp-Nml-Asn-Arg-Che; reading uncertain
B7: JAL-1783 (peptide)
peptide: Octanoyl-[Sni]F[dK](Me2)L[Hyp][NMeL]VRI-NH2
B8: JAL-1765-2 (peptide)
peptide: [AR‑314‑87][leu]L[Hyp][NMeL]DRI-NH2
modifications: reading uncertain; also: printed as (AR-314-87)-leu-Leu-Hyp-Nml-Asp-Arg-Ile-NH2
B9: JAL-1755 (peptide)
peptide: [Occ][Sni]FLL[Hyp][NMeL][Nle]R[Che]
modifications: not fully specified (residue 4); printed as Occ-Sni-Phe-leu-Leu-Hyp-Nml-Nle-Arg-Che; reading uncertain
B10: JAL-1798 (peptide)
peptide: Octanoyl-[Nhpr]FLL[Hyp][NMeL]DRI-NH2
modifications: not fully specified (some residues); printed as Occ-Nhpr-Phe-leu-Leu-Hyp-Nml-Asp-Arg-Ile-NH2
B11: JAL-1786 (peptide)
peptide: Octanoyl-[Sni]F[dDab](Me2)L[Hyp][NMeL]VRI-NH2
B12: JAL-0718 (peptide)
peptide: Hexanoyl-[dA][dA]FGLKLDR[Chg]-NH2
B13: JAL-1799 (peptide)
peptide: Octanoyl-[Nbhp]FLL[Hyp][NMeL]DRI-NH2
modifications: not fully specified (some residues); printed as Occ-Nbhp-Phe-leu-Leu-Hyp-Nml-Asp-Arg-Ile-NH2
B14: JAL-1801 (peptide)
peptide: Octanoyl-[d(hSer)]FLL[Hyp][NMeL]DRI-NH2
modifications: not fully specified (some residues); printed as Occ-hse-Phe-leu-Leu-Hyp-Nml-Asp-Arg-Ile-NH2
B15: JAL-1752 (peptide)
peptide: [Occ][Sni]FLL[Hyp][NMeL]SR[Che]
modifications: not fully specified (residue 4); printed as Occ-Sni-Phe-leu-Leu-Hyp-Nml-Ser-Arg-Che; reading uncertain
B16: JAL-1763 (peptide)
peptide: Octanoyl-[Sni]F[leu]L[Hyp][NMeL][Chg]R[Che]
modifications: reading uncertain; also: printed as Occ-Sni-Phe-leu-Leu-Hyp-Nml-Chg-Arg-Che
B17: JAL-1802 (peptide)
peptide: {Gluc‑Aoa}-[Aoc(2)][Sni]FLL[Hyp][NMeL]DRI-NH2
modifications: not fully specified (some residues); printed as Gluc-Aoa-Hgl-Sni-Phe-leu-Leu-Hyp-Nml-Asp-Arg-Ile-NH2
B18: JAL-1785 (peptide)
peptide: Octanoyl-[Sni]F[dDab](Me2)L[Hyp][NMeL]DRI-NH2
B19: JAL-1729 (peptide)
peptide: [Occ][Sni]FLL[Pro(trans-4-NH2)][NMeL]VR[Che]
modifications: not fully specified (residue 4); printed as Occ-Sni-Phe-leu-Leu-Tap-Nml-Val-Arg-Che; reading uncertain
B20: JAL-1753 (peptide)
peptide: [Occ][Sni]FLL[Hyp][NMeL]TR[Che]
modifications: not fully specified (residue 4); printed as Occ-Sni-Phe-leu-Leu-Hyp-Nml-Thr-Arg-Che; reading uncertain
B21: JAL-1784 (peptide)
peptide: Octanoyl-[Sni]F[dDab](Me2)L[Hyp][NMeL]VR[Che]
modifications: reading uncertain; also: printed as Occ-Sni-Phe-dab(Me2)-Leu-Hyp-Nml-Val-Arg-Che
B22: JAL-1776 (peptide)
peptide: Octanoyl-[Sni]F[orn(Me2)]L[Hyp][NMeL]DR[Che]
modifications: reading uncertain; also: printed as Occ-Sni-Phe-orn(Me2)-Leu-Hyp-Nml-Asp-Arg-Che
B23: JAL-1778 (peptide)
peptide: Octanoyl-[Sni]F[orn(Me2)]L[Hyp][NMeL]VR[Che]
modifications: reading uncertain; also: printed as Occ-Sni-Phe-orn(Me2)-Leu-Hyp-Nml-Val-Arg-Che
B24: JAL-1803 (peptide)
peptide: {Gluc‑Aoa}-[dAoc(2)][Sni]FLL[Hyp][NMeL]DRI-NH2
modifications: not fully specified (some residues); printed as Gluc-Aoa-hgl-Sni-Phe-leu-Leu-Hyp-Nml-Asp-Arg-Ile-NH2
B25: JAL-1730 (peptide)
peptide: [Occ][Sni]FLL[Hyp][NMeL]VR[Che]
modifications: not fully specified (residue 4); printed as Occ-Sni-Phe-leu-Leu-Hyp-Nml-Val-Arg-Che; reading uncertain
B26: JAL-0738 (peptide)
peptide: Octanoyl-[dA]FGLKLDRI-NH2
B27: JAL-1781 (peptide)
peptide: Octanoyl-[Sni]F[lys(Me2)]L[Hyp][NMeL]DRI-NH2
modifications: reading uncertain; also: printed as Occ-Sni-Phe-lys(Me2)-Leu-Hyp-Nml-Asp-Arg-Ile-NH2
B28: JAL-1782 (peptide)
peptide: Octanoyl-[Sni]F[orn(Me2)]L[Hyp][NMeL]VRI-NH2
modifications: reading uncertain; also: printed as Occ-Sni-Phe-orn(Me2)-Leu-Hyp-Nml-Val-Arg-Ile-NH2
B29: JAL-1779 (peptide)
peptide: Octanoyl-[Sni]F[lys(Me2)]L[Hyp][NMeL]VR[Che]
modifications: reading uncertain; also: printed as Occ-Sni-Phe-lys(Me2)-Leu-Hyp-Nml-Val-Arg-Che
B30: JAL-1758 (peptide)
peptide: [Occ][Sni]FLL[Hyp][NMeL][2Thi]R[Che]
modifications: not fully specified (residue 4); printed as Occ-Sni-Phe-leu-Leu-Hyp-Nml-Thi-Arg-Che; reading uncertain

Target: T1, natriuretic peptide receptor-B
Assay: cell-based or functional assay

| EC50 group, cGMP in GTM-3 cells | Binder |
| --- | --- |
| ≤ 5 µM | B1 |
| ≤ 1 µM | B2 |
| ≤ 15 µM | B3 |
| ≤ 5 µM | B4 |
| ≤ 1 µM | B5 |
| ≤ 15 µM | B6 |
| ≤ 15 µM | B7 |
| ≤ 1 µM | B8 |
| ≤ 15 µM | B9 |
| ≤ 5 µM | B10 |
| ≤ 5 µM | B11 |
| ≤ 15 µM | B12 |
| ≤ 5 µM | B13 |
| ≤ 5 µM | B14 |
| ≤ 1 µM | B15 |
| ≤ 15 µM | B16 |
| ≤ 5 µM | B17 |
| ≤ 1 µM | B18 |
| ≤ 1 µM | B19 |
| ≤ 1 µM | B20 |
| ≤ 1 µM | B21 |
| ≤ 1 µM | B22 |
| ≤ 5 µM | B23 |
| ≤ 1 µM | B24 |
| ≤ 1 µM | B25 |
| ≤ 15 µM | B26 |
| ≤ 5 µM | B27 |
| ≤ 1 µM | B28 |
| ≤ 1 µM | B29 |
| ≤ 15 µM | B30 |
